In patent US20240109955A1:

B1: MX1057 (trispecific antibody)
chain 1: QTVVTQEPSFSVSPGGTVTLTCGLSSGSVSTAYFPSWYQQTPGQAPRTLIYGTNTRSSGVPDRFSGSILGNKAALTITGAQADDESDYYCVLYMGRGIVVFGGGTKLTVLGGSSGDTVMTQSPLSLPVTPGEPASISCRSSQSLLNSNGYNYLDWYVQKPGQSPQLLIYLGSNRASGVPDRFSGSGSGTDFTLKISRVEAEDVGVYYCMQPLQTPLFTFGPGTKVEIKGGGGSGGSGSGGGGSASGSGQVTLRESGPALVKPTQTLTLTCTFSGFSLSTRGVCVSWIRQPPGKALEWLAFIDWDDDKYYNTSLKTRLTISKDTSKNQVVLTMTNVHPVDTATYYCARISSHHGSSWCTTFDYWGQGALVTVSAGGSSGQVQLVESGGGVVQPGRSLRLSCAASGFTLSSYGMHWVRQAPGKGLEWVAVISYDGSNKYYVDSVKGRFTISRDNSKNTLYLQMNSLRAEDTAVYYCRWAYWELLPDYYYGMDVWGQGTTVTVSSASGGSGDKTHTCPPCPAPELLGGPSVFLFPPKPKDTLMISRTPEVTCVVVDVSHEDPEVKFNWYVDGVEVHNAKTKPREEQYNSYVVSVLTVLHQDWLNGKEYKCKVSNKALPAPIEKTISKAKGQPREPQVYTLPPCRDELTKNQVSLWCLVKGFYPSDIAVEWESNGQPENNYKTTPPVLDSDGSFFKKLTVDKSRWQQGNVFSCSVLHEALHSHYTQKSLSLSPG
chain 2: EIVMTQSPAILSVSPGERATLSCRASQSVAINLAWYQQKPGQAPRLLIYAASSRATGIPGRFSGSGSETNFTLTISSLQSGDFAVYYCQQYITWPPSYTFGQGTKLEIKGGSSGDTVMTQSPLSLPVTPGEPASISCRSSQSLLNSNGYNYLDWYVQKPGQSPQLLIYLGSNRASGVPDRFSGSGSGTDFTLKISRVEAEDVGVYYCMQPLQTPLFTFGPGTKVEIKGGGGSGGSGSGGGGSASGSGQVTLRESGPALVKPTQTLTLTCTFSGFSLSTRGVCVSWIRQPPGKALEWLAFIDWDDDKYYNTSLKTRLTISKDTSKNQVVLTMTNVHPVDTATYYCARISSHHGSSWCTTFDYWGQGALVTVSAGGSSGEVQLVESGGALIQPGGSLRLSCAASGIIVSANYMSWVRQAPGKGLEWVSVIYSGGSTFYADSVKGRFTISRDNSKNTLYLEMNSLRAEDTAVYYCARDAPILGVSDWGQGTLVTVSSASGGSGDKTHTCPPCPAPELLGGPSVFLFPPKPKDTLMISRTPEVTCVVVDVSHEDPEVKFNWYVDGVEVHNAKTKPREEQYNSYVVSVLTVLHQDWLNGKEYKCKVSNKALPAPIEKTISKAKGQPREPQVCTLPPSRDELTKNQVSLSCAVKGFYPSDIAVEWESNGQPENNYKTTPPVLDSDGSFFLVSKLTVDKSRWQQGNVFSCSVLHEALHSHYTQKSLSLSPG
B2: MX1058 (trispecific antibody)
chain 1: B1 chain 1
chain 2: DTVMTQSPLSLPVTPGEPASISCRSSQSLLNSNGYNYLDWYVQKPGQSPQLLIYLGSNRASGVPDRFSGSGSGTDFTLKISRVEAEDVGVYYCMQPLQTPLFTFGPGTKVEIKGGSSGEIVMTQSPAILSVSPGERATLSCRASQSVAINLAWYQQKPGQAPRLLIYAASSRATGIPGRFSGSGSETNFTLTISSLQSGDFAVYYCQQYITWPPSYTFGQGTKLEIKGGGGSGGSGSGGGGSASGSGEVQLVESGGALIQPGGSLRLSCAASGIIVSANYMSWVRQAPGKGLEWVSVIYSGGSTFYADSVKGRFTISRDNSKNTLYLEMNSLRAEDTAVYYCARDAPILGVSDWGQGTLVTVSSGGSSGQVTLRESGPALVKPTQTLTLTCTFSGFSLSTRGVCVSWIRQPPGKALEWLAFIDWDDDKYYNTSLKTRLTISKDTSKNQVVLTMTNVHPVDTATYYCARISSHHGSSWCTTFDYWGQGALVTVSAASGGSGDKTHTCPPCPAPELLGGPSVFLFPPKPKDTLMISRTPEVTCVVVDVSHEDPEVKFNWYVDGVEVHNAKTKPREEQYNSYVVSVLTVLHQDWLNGKEYKCKVSNKALPAPIEKTISKAKGQPREPQVCTLPPSRDELTKNQVSLSCAVKGFYPSDIAVEWESNGQPENNYKTTPPVLDSDGSFFLVSKLTVDKSRWQQGNVFSCSVLHEALHSHYTQKSLSLSPG
B3: MX1065 (trispecific antibody)
chain 1: QTVVTQEPSFSVSPGGTVTLTCGLSSGSVSTAYFPSWYQQTPGQAPRTLIYGTNTRSSGVPDRFSGSILGNKAALTITGAQADDESDYYCVLYMGRGIVVFGGGTKLTVLGGSSGEIVMTQSPAILSVSPGERATLSCRASQSVAINLAWYQQKPGQAPRLLIYAASSRATGIPGRFSGSGSETNFTLTISSLQSGDFAVYYCQQYITWPPSYTFGQGTKLEIKGGGGSGGSGSGGGGSASGSGEVQLVESGGALIQPGGSLRLSCAASGIIVSANYMSWVRQAPGKGLEWVSVIYSGGSTFYADSVKGRFTISRDNSKNTLYLEMNSLRAEDTAVYYCARDAPILGVSDWGQGTLVTVSSGGSSGQVQLVESGGGVVQPGRSLRLSCAASGFTLSSYGMHWVRQAPGKGLEWVAVISYDGSNKYYVDSVKGRFTISRDNSKNTLYLQMNSLRAEDTAVYYCRWAYWELLPDYYYGMDVWGQGTTVTVSSASGGSGDKTHTCPPCPAPELLGGPSVFLFPPKPKDTLMISRTPEVTCVVVDVSHEDPEVKFNWYVDGVEVHNAKTKPREEQYNSYVVSVLTVLHQDWLNGKEYKCKVSNKALPAPIEKTISKAKGQPREPQVYTLPPCRDELTKNQVSLWCLVKGFYPSDIAVEWESNGQPENNYKTTPPVLDSDGSFFKKLTVDKSRWQQGNVFSCSVLHEALHSHYTQKSLSLSPG
chain 2: QTVVTQEPSFSVSPGGTVTLTCGLSSGSVSTAYFPSWYQQTPGQAPRTLIYGTNTRSSGVPDRFSGSILGNKAALTITGAQADDESDYYCVLYMGRGIVVFGGGTKLTVLGGSSGDTVMTQSPLSLPVTPGEPASISCRSSQSLLNSNGYNYLDWYVQKPGQSPQLLIYLGSNRASGVPDRFSGSGSGTDFTLKISRVEAEDVGVYYCMQPLQTPLFTFGPGTKVEIKGGGGSGGSGSGGGGSASGSGQVTLRESGPALVKPTQTLTLTCTFSGFSLSTRGVCVSWIRQPPGKALEWLAFIDWDDDKYYNTSLKTRLTISKDTSKNQVVLTMTNVHPVDTATYYCARISSHHGSSWCTTFDYWGQGALVTVSAGGSSGQVQLVESGGGVVQPGRSLRLSCAASGFTLSSYGMHWVRQAPGKGLEWVAVISYDGSNKYYVDSVKGRFTISRDNSKNTLYLQMNSLRAEDTAVYYCRWAYWELLPDYYYGMDVWGQGTTVTVSSASGGSGDKTHTCPPCPAPELLGGPSVFLFPPKPKDTLMISRTPEVTCVVVDVSHEDPEVKFNWYVDGVEVHNAKTKPREEQYNSYVVSVLTVLHQDWLNGKEYKCKVSNKALPAPIEKTISKAKGQPREPQVCTLPPSRDELTKNQVSLSCAVKGFYPSDIAVEWESNGQPENNYKTTPPVLDSDGSFFLVSKLTVDKSRWQQGNVFSCSVLHEALHSHYTQKSLSLSPG
B4: MX1066 (trispecific antibody)
chain 1: B3 chain 1
chain 2: DTVMTQSPLSLPVTPGEPASISCRSSQSLLNSNGYNYLDWYVQKPGQSPQLLIYLGSNRASGVPDRFSGSGSGTDFTLKISRVEAEDVGVYYCMQPLQTPLFTFGPGTKVEIKGGSSGQTVVTQEPSFSVSPGGTVTLTCGLSSGSVSTAYFPSWYQQTPGQAPRTLIYGTNTRSSGVPDRFSGSILGNKAALTITGAQADDESDYYCVLYMGRGIVVFGGGTKLTVLGGGGSGGSGSGGGGSASGSGQVQLVESGGGVVQPGRSLRLSCAASGFTLSSYGMHWVRQAPGKGLEWVAVISYDGSNKYYVDSVKGRFTISRDNSKNTLYLQMNSLRAEDTAVYYCRWAYWELLPDYYYGMDVWGQGTTVTVSSGGSSGQVTLRESGPALVKPTQTLTLTCTFSGFSLSTRGVCVSWIRQPPGKALEWLAFIDWDDDKYYNTSLKTRLTISKDTSKNQVVLTMTNVHPVDTATYYCARISSHHGSSWCTTFDYWGQGALVTVSAASGGSGDKTHTCPPCPAPELLGGPSVFLFPPKPKDTLMISRTPEVTCVVVDVSHEDPEVKFNWYVDGVEVHNAKTKPREEQYNSYVVSVLTVLHQDWLNGKEYKCKVSNKALPAPIEKTISKAKGQPREPQVCTLPPSRDELTKNQVSLSCAVKGFYPSDIAVEWESNGQPENNYKTTPPVLDSDGSFFLVSKLTVDKSRWQQGNVFSCSVLHEALHSHYTQKSLSLSPG
B5: MX1056 (trispecific antibody)
chain 1: DTVMTQSPLSLPVTPGEPASISCRSSQSLLNSNGYNYLDWYVQKPGQSPQLLIYLGSNRASGVPDRFSGSGSGTDFTLKISRVEAEDVGVYYCMQPLQTPLFTFGPGTKVEIKGGSSGEIVMTQSPAILSVSPGERATLSCRASQSVAINLAWYQQKPGQAPRLLIYAASSRATGIPGRFSGSGSETNFTLTISSLQSGDFAVYYCQQYITWPPSYTFGQGTKLEIKGGGGSGGSGSGGGGSASGSGEVQLVESGGALIQPGGSLRLSCAASGIIVSANYMSWVRQAPGKGLEWVSVIYSGGSTFYADSVKGRFTISRDNSKNTLYLEMNSLRAEDTAVYYCARDAPILGVSDWGQGTLVTVSSGGSSGQVTLRESGPALVKPTQTLTLTCTFSGFSLSTRGVCVSWIRQPPGKALEWLAFIDWDDDKYYNTSLKTRLTISKDTSKNQVVLTMTNVHPVDTATYYCARISSHHGSSWCTTFDYWGQGALVTVSAASGGSGDKTHTCPPCPAPELLGGPSVFLFPPKPKDTLMISRTPEVTCVVVDVSHEDPEVKFNWYVDGVEVHNAKTKPREEQYNSYVVSVLTVLHQDWLNGKEYKCKVSNKALPAPIEKTISKAKGQPREPQVYTLPPCRDELTKNQVSLWCLVKGFYPSDIAVEWESNGQPENNYKTTPPVLDSDGSFFKKLTVDKSRWQQGNVFSCSVLHEALHSHYTQKSLSLSPG
chain 2: B4 chain 2

The binders below were run against SARS-CoV-2 spike (S) protein, Omicron sublineage BQ.1.1 (SARS-CoV-2) (assay: cell-based or functional assay).

Binder | IC50, pseudovirus neutralization [µg/mL] | IC80, pseudovirus neutralization [µg/mL]
B1 | 0.0123 | 0.0561
B2 | 0.00449 | 0.0285
B3 | 0.014 | 0.0206
B4 | 0.0284 | 0.0307
B5 | 0.00584 | 0.0419

Each binder was assayed against SARS-CoV-2 spike (S) protein, Omicron sublineage BA.4/5 (SARS-CoV-2) (assay: cell-based or functional assay).

Binder | IC50, pseudovirus neutralization [µg/mL] | IC80, pseudovirus neutralization [µg/mL]
B1 | 0.00404 | 0.00742
B2 | 0.00274 | 0.00551
B5 | 0.00412 | 0.00589

The binders below were run against SARS-CoV-2 spike (S) protein, Omicron sublineage BQ.1 (SARS-CoV-2) (assay: cell-based or functional assay).

Binder | IC50, pseudovirus neutralization [µg/mL] | IC80, pseudovirus neutralization [µg/mL]
B1 | 0.0083 | 0.0236
B2 | 0.016 | 0.032
B3 | 0.0335 | 0.086
B4 | 0.0359 | 0.0413
B5 | 0.013 | 0.0368

What follows are binders tested against SARS-CoV-2 spike (S) protein, Omicron sublineage BA.2.75.2 (SARS-CoV-2) (assay: cell-based or functional assay).

Binder | IC50, pseudovirus neutralization [µg/mL] | IC80, pseudovirus neutralization [µg/mL]
B1 | 0.00127 | 0.00379
B2 | 0.00403 | 0.01
B5 | 0.00253 | 0.00992

These binders were tested against SARS-CoV-2 spike (S) protein, Omicron sublineage XBB (SARS-CoV-2) (assay: cell-based or functional assay).

Binder | IC50, pseudovirus neutralization [µg/mL] | IC80, pseudovirus neutralization [µg/mL]
B1 | 0.00639 | 0.0355
B2 | 0.0142 | 0.0318
B3 | 0.0125 | 0.0167
B4 | 0.0287 | 0.0298
B5 | 0.00713 | 0.0236
